The test has as its target Transforming growth factor β (human (endogenous in PANC-1)).

Tumor uptake (%ID/g-mean) of [^68Ga]Ga-P144 by microPET data for one molecule are collected here from article PMC10540840, “PET imaging with [^68Ga]-labeled TGFβ-targeting peptide in a mouse PANC-1 tumor model” (Frontiers in Oncology, 2023).

Ends that are not written are not given here. * marks the point of attachment. DOTA = O=C(O)CN1CCN(CC(=O)O)CCN(CC(=O)*)CCN(CC(=O)O)CC1; PEG (n : 3) = short polyethylene glycol linker, n = 3

Transforming growth factor β (human (endogenous in PANC-1)), sequence (P01137 279-390): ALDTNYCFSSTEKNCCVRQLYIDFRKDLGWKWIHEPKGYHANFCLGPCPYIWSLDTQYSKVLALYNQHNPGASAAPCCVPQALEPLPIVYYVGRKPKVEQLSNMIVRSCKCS

The molecule {DOTA-PEG (n : 3)}-TSLDASIWAMMQNA (also: [68Ga] chelated by the DOTA) [[^68Ga]Ga-DOTA-P144] gave a tumor uptake (%ID/g-mean) of [^68Ga]Ga-P144 by microPET at 1 h in PANC-1 tumor-bearing mice, unblocked group (n = 4) of 5.36 %ID/g-mean.
